Assay [1] has as its target T1, human leptin binding domain (hLBD) consisting of the amino acids 428-635 of human leptin receptor (human, UniProt P48357 428-635).
T1 chain: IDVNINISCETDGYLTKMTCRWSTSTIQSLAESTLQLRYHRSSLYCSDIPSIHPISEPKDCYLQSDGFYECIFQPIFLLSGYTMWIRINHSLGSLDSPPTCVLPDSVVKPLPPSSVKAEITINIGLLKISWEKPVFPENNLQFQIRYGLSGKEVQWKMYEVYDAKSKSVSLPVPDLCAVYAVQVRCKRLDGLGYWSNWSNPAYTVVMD
As to the kind of experiment: ELISA; competition with biotinylated human leptin; given as EC50.

In assay [2] the target is T2, human leptin binding domain (hLBD) consisting of the amino acids 428-635 of human leptin receptor (human, UniProt P48357 428-635).
T2 sequence (looked up): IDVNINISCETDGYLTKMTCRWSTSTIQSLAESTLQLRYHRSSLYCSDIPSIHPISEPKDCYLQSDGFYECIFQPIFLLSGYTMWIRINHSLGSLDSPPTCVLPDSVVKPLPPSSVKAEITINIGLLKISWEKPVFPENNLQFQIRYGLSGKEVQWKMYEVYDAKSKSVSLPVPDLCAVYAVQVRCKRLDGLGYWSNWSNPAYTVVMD
As to the kind of experiment: competitive non-radioactive receptor-binding assay; hLBD immobilized; biotinylated human leptin bound in the presence of the indicated concentrations of SRLA or PEG-SRLA; triplicates. As to conditions: both partners purified.

These results are taken from PMC3901689, “Leptin-Induced Endothelium-Dependent Vasorelaxation of Peripheral Arteries in Lean and Obese Rats: Role of Nitric Oxide and Hydrogen Sulfide” (PLoS ONE, 2014).

B1: super active rat leptin antagonist (D23L/L39A/D40A/F41A mutant), non-pegylated (ligand)
chain: AVPIHKVQDDTKTLIKTIVTRINLISHTQSVSARQRVTGAAAIPGLHPILSLSKMDQTLAVYQQILTSLPSQNVLQIAHDLENLRDLLHLLAFSKSCSLPQTRGLQKPESLDGVLEASLYSTEVVALSRLQGSLQDILQQLDLSPEC
notes: extra Ala left at the N-terminus from an extra Met-Ala (Met is cleaved by the bacteria); leptin, rat; about 16 kDa by SDS-PAGE; also called SRLA
What is called IC50 is the concentration at which inhibition is half-maximal. Low readings indicate higher potency, high ones lower potency. The molecule B1 returned an IC50 in assay [1] of 0.977 nM. Also, the binding result in assay [2] is on record as “binds”.

B2: mono-pegylated super active rat leptin antagonist (D23L/L39A/D40A/F41A mutant) (ligand)
chain: AVPIHKVQDDTKTLIKTIVTRINLISHTQSVSARQRVTGAAAIPGLHPILSLSKMDQTLAVYQQILTSLPSQNVLQIAHDLENLRDLLHLLAFSKSCSLPQTRGLQKPESLDGVLEASLYSTEVVALSRLQGSLQDILQQLDLSPEC
modifications: mono-pegylated (90%, with 10% double pegylated product); site and PEG size not stated
notes: extra Ala left at the N-terminus from an extra Met-Ala (Met is cleaved by the bacteria); leptin, rat; same chain as m1; also called PEG-SRLA; pegylated superactive rat leptin receptor antagonist
Consider B2, for which the IC50 in assay [1] was found to be 9.31 nM. For the same molecule, the binding result in assay [2] is listed as “binds”.
